Source: patent US20220372138A1 (IOMX THERAPEUTICS, published 2022)
Positions count from the first letter of the chain named. Read-outs that look alike come from different tables or passages of the source.

How the values were obtained:
[1] = molecular target: T1, extracellular domain (ECD) of human IGSF11 (VSIG3), recombinant (human, UniProt Q5DX21 23-241); experiment: Fab ELISA
T1 construct: biotinylated where captured on streptavidin; tags of the reagent not always stated; also called IGSF11 (ECD domain); ECD-IGSF11
T1 sequence: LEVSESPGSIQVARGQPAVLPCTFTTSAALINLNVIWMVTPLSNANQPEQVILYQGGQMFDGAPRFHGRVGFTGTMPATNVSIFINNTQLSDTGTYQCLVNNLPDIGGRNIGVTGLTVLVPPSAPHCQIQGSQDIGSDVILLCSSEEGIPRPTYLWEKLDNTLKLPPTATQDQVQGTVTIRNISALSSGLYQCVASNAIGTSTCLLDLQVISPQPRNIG
Description: (§1) In order to identify IGSF11-specific binding ABPs, monoclonal Fabs expressed from E. coli were generated from the enriched set of anti-IGFS11 antibody-expressing phage. After bacterial lysis, the Fabs were tested for their binding properties and cross-reactivity profile on recombinant ECD-IGSF11 (human, mouse and cynomolgus monkey) by standard ELISA. Briefly, biotinylated recombinant ECD-IGSF11 from human, mouse, or cynomolgus monkey were immobilized at 2 ug/mL on a streptavidin-coated 384-well Maxisorp plate. The surface was blocked with 2% (w/v) skim milk powder in PBST. After three wash cycles with PBST, a bacterial lysate of each of the anti-IGSF11 Fabs in 2% (w/v) skim milk powder was applied to the immobilized IGSF11 and incubated for 1 h. After removing all unbound Fab by 3 wash cycles with PBST, bound Fab antibodies were detected with a goat anti-human Fab antibody conjugated with horseradish peroxidase. After three wash cycles with PBST the ELISA was developed with TMB substrate.

[2] = molecular target: Streptavidin (UniProt P22629 37-163, limits assumed); experiment: Fab ELISA
Sequence of Streptavidin (P22629 37-163 limits assumed): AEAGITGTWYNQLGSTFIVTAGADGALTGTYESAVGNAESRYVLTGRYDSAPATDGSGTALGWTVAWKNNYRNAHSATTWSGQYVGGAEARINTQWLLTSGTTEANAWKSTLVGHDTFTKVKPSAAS
Description: as §1

[3] = molecular target: T2, ECD of cynomolgus monkey IGSF11, recombinant biotinylated (cynomolgus monkey, UniProt Q5DX21 23-241 (human entry)); experiment: Fab ELISA
T2 construct: whole entry named
T2 chain: T1 sequence with P17T, I83V, A185T, S187T
Description: as §1

[4] = molecular target: T3, ECD of murine IGSF11, recombinant biotinylated (mouse, UniProt P0C673 23-240); experiment: Fab ELISA
T3 construct: whole entry named; also called Mouse IGSF11
T3 sequence: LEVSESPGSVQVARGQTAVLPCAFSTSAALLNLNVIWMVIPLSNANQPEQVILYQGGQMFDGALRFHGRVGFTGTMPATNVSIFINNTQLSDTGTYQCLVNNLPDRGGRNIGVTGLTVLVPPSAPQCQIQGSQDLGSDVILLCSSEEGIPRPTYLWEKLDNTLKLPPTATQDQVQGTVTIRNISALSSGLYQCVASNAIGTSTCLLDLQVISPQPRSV
Description: as §1

[5] = molecular target: T4, human IGSF11 (VSIG3) ECD, His-tagged (human, UniProt Q5DX21 23-241); experiment: ELISA: IGSF11-HIS coated, IgG1 dilution series, anti-human antibody-HRP, TMB
T4 construct: in part bought (SinoBiological 13094-H08H); also called HIS-IGSF11; IGSF11-HIS; not shown: His tag
T4 sequence: T1 sequence

[6] = molecular target: T4, human IGSF11 (VSIG3) ECD, His-tagged; experiment: blocking ELISA: VSIR-Fc immobilised, IgG dilution series pre-incubated with 200 nM IGSF11 ECD-His, bound IGSF11 detected with anti-His-HRP
[7] = molecular target: T5, full-length ECD of human IGSF11 fused to murine Fc (human, UniProt Q5DX21 23-241); experiment: IgG ELISA
T5 construct: also called Fc-fusion IGSF11 ECD; not shown: murine Fc
T5 sequence: T1 sequence

[8] = molecular target: T6, IgV domain of human IGSF11 fused to murine IgG2a Fc (human, UniProt Q5DX21 23-143); experiment: IgG ELISA;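 note: ELISA binding of IgG antibodies to plate-coated IGSF11 Fc-fusion proteins (full-length ECD, IgV or IgC2 domain), detected via HRP-labelled anti-human IgG with TMB development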
T6 construct: not shown: murine IgG2a Fc-region
T6 sequence: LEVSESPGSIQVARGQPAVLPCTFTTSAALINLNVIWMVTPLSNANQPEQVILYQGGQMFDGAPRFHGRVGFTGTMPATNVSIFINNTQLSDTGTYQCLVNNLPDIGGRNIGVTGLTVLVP

[9] = molecular target: T7, murine IGSF11 expressed on cells (mouse, UniProt P0C673 23-428); experiment: IgG FACS CT26-IGSF11
T7 construct: MC38-IGSF11, CT26-IGSF11, MC38-wt (naturally expresses murine IGSF11)
T7 sequence: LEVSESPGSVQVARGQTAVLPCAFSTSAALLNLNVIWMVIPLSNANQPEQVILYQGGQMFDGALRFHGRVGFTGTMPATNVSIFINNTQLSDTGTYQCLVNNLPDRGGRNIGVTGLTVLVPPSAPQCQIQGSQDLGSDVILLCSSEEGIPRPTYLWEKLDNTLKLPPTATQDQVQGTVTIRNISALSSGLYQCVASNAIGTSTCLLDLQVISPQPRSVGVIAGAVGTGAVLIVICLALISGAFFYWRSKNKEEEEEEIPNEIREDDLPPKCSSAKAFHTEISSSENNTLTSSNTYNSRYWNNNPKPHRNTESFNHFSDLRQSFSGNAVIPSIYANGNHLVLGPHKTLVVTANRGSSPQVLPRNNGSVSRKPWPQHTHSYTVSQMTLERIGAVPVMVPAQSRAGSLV
Excerpt: (§2) Unbound antibodies were removed by washing the cells three time with FACS buffer. Bound antibodies were detected with a mouse anti-human IgG antibody conjugated with AlexaFluor647.

[10] = molecular target: T7, murine IGSF11 expressed on cells; experiment: IgG FACS MC38-IGSF11
Excerpt: as §2

[11] = molecular target: T8, human IGSF11 (VSIG3) expressed on cells (human, UniProt Q5DX21 23-431); experiment: IgG FACS MDA-MB-231-IGSF11
T8 sequence: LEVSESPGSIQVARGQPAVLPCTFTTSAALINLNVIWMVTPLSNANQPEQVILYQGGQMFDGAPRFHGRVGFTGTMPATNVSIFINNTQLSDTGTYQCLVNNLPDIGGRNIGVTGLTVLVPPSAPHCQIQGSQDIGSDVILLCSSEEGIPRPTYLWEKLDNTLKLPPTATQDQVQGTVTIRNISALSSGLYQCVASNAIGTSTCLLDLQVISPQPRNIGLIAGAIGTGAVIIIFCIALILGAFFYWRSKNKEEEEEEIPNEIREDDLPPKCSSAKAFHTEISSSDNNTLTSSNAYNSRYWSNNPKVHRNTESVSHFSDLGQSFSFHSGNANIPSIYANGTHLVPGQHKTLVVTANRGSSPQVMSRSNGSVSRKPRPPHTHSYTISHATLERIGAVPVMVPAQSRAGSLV
Excerpt: as §2

[12] = molecular target: T5, full-length ECD of human IGSF11 fused …; experiment: IgG ELISA; remark: listed apart in the source
Description: Binding of IgG antibodies to each of the full-length ECD of IGSF11, to the IgV domain of IGSF11 and to the IgC2 domain of IGSF11, was tested in the ELISA assay as follows: briefly, recombinant domains of Fc-fusion IGSF11 proteins were coated at 2 ug/mL on a 384-well Maxisorp plate. The surface was blocked with 2% (w/v) skim milk powder in PBST. […] After removing all unbound antibodies by 3 wash cycles with PBST, bound IgG ABPs were detected with a goat anti-human IgG antibody conjugated with horseradish peroxidase. After three wash cycles with PBST the ELISA was developed with TMB substrate.

[13] = molecular target: T9, IgC2 domain of human IGSF11 fused to murine IgG2a Fc (human, UniProt Q5DX21 137-241); experiment: IgG ELISA
T9 construct: not shown: murine IgG2a Fc-region
T9 sequence: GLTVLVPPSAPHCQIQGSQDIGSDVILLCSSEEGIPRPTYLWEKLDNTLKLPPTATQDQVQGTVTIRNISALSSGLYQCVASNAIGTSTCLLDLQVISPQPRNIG

[14] = molecular target: T8, human IGSF11 (VSIG3) expressed on cells; experiment: IgG1 FACS HEK-OE
[15] = molecular target: T4, human IGSF11 (VSIG3) ECD, His-tagged; experiment: IgG1 ELISA EC50 0.02-0.05 nM
[16] = molecular target: T8, human IGSF11 (VSIG3) expressed on cells; experiment: IgG1 FACS DMS 273
[17] = molecular target: T4, human IGSF11 (VSIG3) ECD, His-tagged; experiment: IgG1 ELISA EC50 <0.02 nM
[18] = molecular target: T8, human IGSF11 (VSIG3) expressed on cells; experiment: IgG FACS Colo741
Excerpt: as §2

B1: C-013 (Fab format) (Fab, V domains shown)
VH: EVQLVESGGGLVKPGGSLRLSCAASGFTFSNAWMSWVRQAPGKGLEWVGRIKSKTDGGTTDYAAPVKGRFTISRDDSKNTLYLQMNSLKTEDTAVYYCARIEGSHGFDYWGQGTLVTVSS
VL: SYELTQPPSVSVSPGQTASITCSGDKLGDKYASWYQQKPGQSPVLVIYQDSKRPSGIPERFSGSNSGNTATLTISGTQAEDEADYYCASYLHTPKQFVFGGGTKLTVL
notes: Fab from E. coli lysate
B1 showed an A450 [1] of under 1 and an A450 [2] of under 0.1.

B2: C-027 (Fab format) (Fab, V domains shown)
VH: QVQLVQSGAEVKKPGSSVKVSCKASGGTFSSYAISWVRQAPGQGLEWMGGIIPIFGTANYAQKFQGRVTITADESTSTAYMELSSLRSEDTAVYYCARENIPSYYDSSGRQDAFDIWGQGTMVTVSS
VL: B1 VL with A88Q, T93K, P94S, K95H, Q96G, F97A
notes: Fab from E. coli lysate
B2 gave an A450 [1] of under 1, an A450 [3] of under 1 and an A450 [2] of under 0.1.

B3: C-018 (Fab format) (Fab, V domains shown)
VH: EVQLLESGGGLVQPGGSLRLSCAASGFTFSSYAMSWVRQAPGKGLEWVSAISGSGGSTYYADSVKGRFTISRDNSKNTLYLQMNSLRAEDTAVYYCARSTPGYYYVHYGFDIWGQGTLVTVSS
VL: B1 VL with A88Q, S89A, Y90W, L91S, H92T, T93S, P94T, K95H, Q96S, F97W
notes: Fab from E. coli lysate
B3 was tested, and the A450 [1] was under 1, the A450 [4] was under 1 and the A450 [3] was under 1. For the same binder, the A450 [2] was under 0.1.

B4: B-004 (chain-swapped IgG1) (antibody, V domains shown)
VH: EVQLLESGGGLIQPGGSLRLSCAVSGFTVSSNYMSWVRQAPGKGLEWVSVIYSGGSTYYADSVKGRFTISRDNSKNTLYLQMNSLRAEDTAVYYCARGNPYYYGDLQVNFDYWGQGTLVTVSS
VL: QAVVTQEPSLTVSPGGTVTLTCASSTGAVTSGYYPNWFQQKPGQAPRPLIYSTSNKHSWTPARFSGSLLGGKAALTLSGVQPDDEAEYYCLLYYGGDWVFGGGTKLTVL
notes: human IgG1 format; also called B4
With B4 the “EC50 (read off the curve)” value [5] was about 0.02 nM and the “IC50 (read off the curve)” value [6] was about 5 nM.

B5: B-008 (chain-swapped IgG1) (antibody, V domains shown)
VH: B4 VH with L5V, V24A
VL: B4 VL with L20P, A23G, Y33N, Y34L, P48A, F64I, D83E, D97A
notes: human IgG1 format; also called B8
For B5, the “IC50 (read off the curve)” value [6] was about 4 nM.

B6: B-006 (chain-swapped IgG1) (antibody, V domains shown)
VH: B4 VH with L5V, V24A
VL: B4 VL with G16E, K41R, P48A, H57D, D83E, D97A
notes: human IgG1 format; also called B6
In the case of B6, the “EC50 (read off the curve)” value [5] is reported as about 0.02 nM and the “IC50 (read off the curve)” value [6] is reported as about 5 nM.

B7: B-007 (chain-swapped IgG1) (antibody, V domains shown)
VH: B4 VH with L5V, V24A
VL: B4 VL with G32A, P48A, D83E, E87D, D97A
notes: human IgG1 format; also called B7
In the case of B7, the “EC50 (read off the curve)” value [5] is reported as about 0.01 nM and the “IC50 (read off the curve)” value [6] is reported as about 3 nM.

B8: C-004 (Fab format) (Fab, V domains shown)
VH: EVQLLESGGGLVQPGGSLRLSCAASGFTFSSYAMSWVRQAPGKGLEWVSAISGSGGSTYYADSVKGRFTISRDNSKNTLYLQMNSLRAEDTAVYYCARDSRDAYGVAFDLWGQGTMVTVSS
VL: ASVLTQPPSVSAAPGQKVTISCSGSSSNIGNNYVSWYQQLPGTAPKLLIYDNNKRPSGIPDRFSGSKSGTSATLGITGLQAEDEADYYCLTWTGAGRIFVFGGGTKLTVL
notes: Fab from E. coli lysate
In the case of B8, the A450 [1] is reported as under 1, the A450 [4] is reported as under 1 and the A450 [3] is reported as under 1. It also gave an A450 [2] of under 0.1.

B9: C-017 (IgG1 format) (antibody, V domains shown)
VH: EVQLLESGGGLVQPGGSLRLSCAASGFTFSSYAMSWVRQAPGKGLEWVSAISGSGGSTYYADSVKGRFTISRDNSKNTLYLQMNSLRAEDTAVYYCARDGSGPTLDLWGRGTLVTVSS
VL: DIQMTQSPSSLSASVGDRVTITCRASQSISSYLNWYQQKPGKAPKLLIYAASSLQSGVPSRFSGSGSGTDFTLTISSLQPEDFATYYCQQHRYIPPWTFGQGTKVEIK
B9 showed an EC50 [7] of 1 to 20 nM, an EC50 [8] of 1 to 20 nM and an EC50 [9] of 20 to 50 nM. The EC50 [10] was 50 to 100 nM and the EC50 [11] was 15 to 25 nM.

B10: C-019 (Fab format) (Fab, V domains shown)
VH: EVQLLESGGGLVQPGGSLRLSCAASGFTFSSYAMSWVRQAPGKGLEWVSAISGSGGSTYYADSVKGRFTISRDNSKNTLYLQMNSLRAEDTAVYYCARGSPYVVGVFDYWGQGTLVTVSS
VL: B9 VL with H91W, R92Q, Y93H, I94E, W97Y
notes: Fab from E. coli lysate
Work on B10 yielded an A450 [1] of under 1, an A450 [4] of under 1 and an A450 [3] of under 1. The A450 [2] was under 0.1.

B11: A-035 (IgG1 format) (antibody, V domains shown)
VH: QVQLVQSGAEVKKPGASVKVSCKASGYTFTGYYMHWVRQAPGQGLEWMGWINPNSGNTGYAQKFQGRVTMTRNTSISTAYMELSSLRSEDTAVYYCARGRLERGYWYFDLWGRGTLVTVSS
VL: NFMLTQPHSVSESPGRTVTISCTRSSGSITSNYVQWYQQRPGSAPTILIYEDKERPSEVPDRFSGSIDISSNSASLTISGLKTEDEADYYCQSYGGTSQGVLFGGGTKVTVL
notes: human IgG1 format
B11 gave an EC50 [12] of 1 to 20 nM, an EC50 [13] of 20 to 100 nM and an EC50 [14] of over 50 nM. For the same binder, the EC50 [15] was 0.02 to 0.05 nM.

B12: A-022 (IgG1 format) (antibody, V domains shown)
VH: EVQLLESGPGLVKPSQTLSLTCTVSGGSISSGGYYWSWIRQHPGKGLEWIGYIYYSGSTYYNPSLKSRVTISVDTSKNQFSLKLSSVTAADTAVYYCARASRSTDYYFDYWGQGTLVTVSS
VL: QPGLTQPPSMSYGLGQTATLTCTGNRNNIGDQGAAWLQQHQGHPPKLLSYRNNNGPSGISERLSASRSGNTASLTISGLQPEDEADYYCSAWDSSLRAWVFGGGTKLTVL
notes: human IgG1 format
For B12, the EC50 [12] was under 1 nM, the EC50 [13] was under 1 nM and the EC50 [14] was 10 to 50 nM. It also gave an EC50 [16] of 10 to 50 nM and an EC50 [17] of under 0.02 nM.

B13: D-115 (IgG format) (antibody, V domains shown)
VH: EVQLLESGGGLVQPGGSLRLSCAASGFTFQFSALSWVRQAPGKGLEWVSAISYGGGSKYYADSVKGRFTISRDNSKNTLYLQMNSLRAEDTAVYYCARDSRDAYGVAFDLWGQGTMVTVSS
VL: ASVLTQPPSVSAAPGQKVTISCSGSSSNIGNNYVSWYQQLPGTAPKLLIYDNNKRPSGIPDRFSGSKSGTSATLGITGLQAEDEADYYCQSYESRLFVFGGGTKLTVL
With B13 the EC50 [18] was under 0.1 nM.
